Laboratory results from the DeepSol protein solubility set.

Assay: soluble on expression in E. coli; label from the status in PepcDB or PDB records
For “MGSDKIHHHHHHMQSFKIIKPIHILTPYVRYYWILEDGADVSVSERTLPTGCIQLVFHRGKRLLLVGKKESQPQAFICGQCLNFSDVMSAGKIEMITVVFQPYAARAILQLPLKFFYGELIAVDAIADLELSILSRKVIEADDHETCIRLIEQFLIHRLYRFEGYEYNLKRISAVLHQINEQAKTNISELSETACLSSKQFNRIFLDYVGATPKEFLRIVRMQRALFKVQQNPSISFAQLAYECGFSDQSHMIKEFKLFSGYTPTEYLSLCAPYSDYFSE”, the “soluble on expression in E. coli” value was “not soluble”. In the case of “MGIDYNRWWHLKDETLGEELKGYIKMIEEDYLVYSGTTSQLHVSKLSNGSVNSIVNEILEQQGSWSIIYYNQKLKKLFIGRDVFGRQSLVFNFESMIFGCRTKPETSGKWIEIPFGQVTVFSLDSTDPVIYSYLDEYPENVLDGYFSGSDISRIVVNKKHGLLNVSRSTGGEIDSFNTKDLFQKVIDATKILLKNYHESHVAVCLSGGVDSTFVAHVVHSSVPENMQIDLINVAFGNSEKECEQAPDRKRARKALESFRTAYPTRQFRLILVNVDSQTLEVNRKESISDAAQPASSVLDDSLSCVLWFAVRAEGVDSENQQSVRSPATTCLLGSGADELLAGYARHRTRFEKEQIPENVAEECENELRRLGSRNGGRDARVAAQLGKTILSPLLEDTVVTWLNALPVDSKWDLSLPRGVGEKQLLRETVKMLGSPYDAPKQAMQFGSRMAKMSNAGDNSIKGSDKSPHLLKTDVN”, the “soluble on expression in E. coli” value was “not soluble”. With “MITQEMKDLINNQLAMVATVDAKGQPNIGPKRSMRLWDDKTFIYNENTDGQTRINIEDNGKIEIAFVDRERLLGYRFVGTAEIQTEGAYYEAAKKWAQGRMGVPKAVGIIHVERIFNLQSGANAGKEINSESN” the “soluble on expression in E. coli” value was “not soluble”. In the case of “YRALFEHAIDGIFIMDAEGHYLDVNPAICSAIGYTRDEFLALDWGVLSRGVDSGWAAASLARIVGGEPLREERTVWTRNGDQLTVELSAHLLPDGKILGIARDVS”, the “soluble on expression in E. coli” value was “soluble”. With “MSANDFKPETWTSSANEALRVSIVGENAVQFSPLFTYPIYGDSEKIYGYKDLIIHLAFDSVTFKPYVNVKYSAKLGDDNIVDVEKKLLSFLPKDDVIVRDEAKWVDCFAEERKTHNLSDVFEKVSEYSLNGEEFVVYKSSLVDDFARRMHRRVQIFSLLFIEAANYIDETDPSWQIYWLLNKKTKELIGFVTTYKYWHYLGAKSFDEDIDKKFRAKISQFLIFPPYQNKGHGSCLYEAIIQSWLEDKSITEITVEDPNEAFDDLRDRNDIQRLRKLGYDAVFQKHSDLSDEFLESSRKSLKLEERQFNRLVEMLLLLNNS” the “soluble on expression in E. coli” value was “soluble”. In the case of “MEFNKLQLSHCISFYISDVSEVFFESINQHPSRDFVNNILQKIKSTLSEEELEKLNTIEEVTKDEKILIMLNHVLKKIVSKTGSSSCDLFQIVKHDRFNEPVYIQSVNAFENNLINNEFAERRYDYLIEINKHSYLRKYVNAIRISFFLDLRAQILSGSFTLDVINKQLEHQNKEELFQAIYLRSLIKHFISNQLYPISLNSFIFGDKNRENKTVENDKLSVLKNNWNQIFFSKYFDFVAKNKEERVVDNNCD”, the “soluble on expression in E. coli” value was “not soluble”. In the case of “MSLGTPVTLRMDTTDADGRITLGDLFDGVSGPAANVVVAARMSATAVLEAGQVQMSARRAGYVWTNANGVRRIIVREGVDNGGVSSSAAPGAQLAGARLAGAPRANVEVLPYARSLSAGEIVQPQDLIWVKMAGAPADAPRDADAVIGLAAKRPLREGAPVGMKDVAAAQVIKSGDLITITYEDGGISLSLQGKAMAAAAAGDVFAVQNTLSKKIIQAVAVGPGAAAVGPQEGHHHHHH”, the “soluble on expression in E. coli” value was “not soluble”. In the case of “MSLERIDIASVKGGVGKSFIAYFLSKTLAASHKILLIDKDLTSTLSRVYNIKGNLLSYLTVGQSSLAYFKEVDSGLTVVNVGCSRKIKNVEPKKIADIYSGFSDHDLMIVDNPSIPSDVCLDTELQAYYTYLNEKRLDYNLILILPPNQLLLDESLAFMQLFKDYIKNELSISLGNDLVNFDVISSVINMYNPRERIDISKIKDLTSKIVKIPFKKEAIYTPFNQLNTPMEISELAKYVLEYLESREGHHHHHH”, the “soluble on expression in E. coli” value was “soluble”. With “SESLVVCDVAEDLVEKLRKFRFRKETHNAAIIMKIDKDERLVVLDEELEGVSPDELKDELPERQPRFIVYSYKYQHDDGRVSYPLCFIFSSPVGCKPEQQMMYAGSKNKLVQTAELTKVFEIRNTEDLTEEWLREKLG” the “soluble on expression in E. coli” value was “soluble”. In the case of “MTPLGPASSLPQSFLLKCLEQVRKIQGDGAALQEKLCATYKLCHPEELVLLGHSLGIPWAPLSSCPSQALQLAGCLSQLHSGLFLYQGLLQALEGISPELGPTLDTLQLDVADFATTIWQQMEELGMAPALQPTQGAMPAFASAFQRRAGGVLVASHLQSFLEVSYRVLRHLAQP”, the “soluble on expression in E. coli” value was “soluble”. With “MGKNKTAYVCQECGYKSVKWLGKCPSCGEWNTLVEEFEPQSFSLVKKEPSLVLPVTDWEKEEHERETTGFESLDNALGGGLVKGQVILIAGEPGIGKSTLLLQISDRVANGKKVLYVSGEESGTQIALRAKRLGINNENLLVYPEVNLEKILQTLEKEKPSLLVLDSVQTIFSERLESSAGSVSQVREVTYRITEFCKEKNVPAFIVGQITKEGSIAGPKVLEHIVDTVLQFEGERFNFYRIVKVIKNRFGSTGEIAVFKMTDKGLEEVPEPSAFFISEKANAPGSVVFPHTEGSKPVLLEVQALVIPALYTTPQRRTQGFDPNRLALILAVLEKEAKIFTRDQDVFVNVAGGMSVKEPAADLAVAMAVVSSKKEKEVPKDFVIFGEVGLSGEIRAVHFGDLRLKEAKRFGFKKALIPKSLEIEIDGMEIYPVSHIQEAIEVLF” the “soluble on expression in E. coli” value was “soluble”. For “MKNVEEQAEREIALSDEMVLQFLQQNPDFFIRNARPVEQMRVPHPVRGTVSLVEWQLARQRNHITQLEEEITLLMEQAGANEVLFNRLLGLQTELASAESLTDMLDRLQRWARQLGLAGAAVRLFSDKWRIGAPSDFTHLGLNRSSFEPLRIQRFGQHNHYLGSLNGPELLLLLPQARQVGSVALSLMGNHHDLGVLIFSSRDSHHYQNGMGTVLLQQMAMMLPAMLARWVERVLEHHHHHH”, the “soluble on expression in E. coli” value was “not soluble”. With “MSLRIAIQGCSHGSLAQIYDVVNYYSSQTKNPIDLLLLCGDFQALRSKHDYASLAVPAKFKQLGSFHQYYSGERVAPVLTIVIGGNHEASNYMWELYHGGWLAPSIYYLGAAGSVYMNGLRIVGASGIYKGFDYRKGHFEKVPYNDKELRSIYHIREYDVEKLMHLTPSPSTIFLSHDWPTTIAHHGNKNALLKRKPFFRDENTLGSPPLLRLMNHFQPSYWFSAHLHVKFAALYEHQAPSHGPDVDGGAPLPLPAMSTAIAQTGNEGHHHHHH” the “soluble on expression in E. coli” value was “not soluble”. In the case of “MNVRDLSFKLNSIFDINKYEHIDKNLNGLQVGNINAKVNKVAFAVDASFSTLKEAKGNDFLITHHGIFWSKKERIVSNMYDKTKFLIENNLALYSVHLPMDAHSVYSHSKVFSDFLGLKNSFAFANYGGVNLGIIADSVFSFSEILEKIKKENKHILFSKKFKESVNKVAIVSGSGYSFFEEALCHDVDLFITGDTSHQIYSLAEEFGVNLIFAGHYFTETFGLIKLMEDFKIQEDLEVKFICKNTNLLEHHHHHH”, the “soluble on expression in E. coli” value was “not soluble”. In the case of “SNATKTIHNARYQALLDLLLEARSAAGITQKELAARLGRPQSFVSKTENAERRLDVIEFMDFCRGIGTDPYALLSKLEAMTPS”, the “soluble on expression in E. coli” value was “soluble”. For “MSPKSVVVTGSNRGLGFGLVQQFLKDPNVQHVIATARDVDKATALKGICDPRLHILQLSLGSDESIANFAEKVSEIVGESGLTLLINNAAVMLPYVTKQKPDRKVVLDLFESNTIGPMMLTQSLVPLIIKASKRQEGDTLSVSRGAIINIASEFLGSISENTSGSGEYKAMAYRMTKCAVNQFTKTLSIDLKDDHILTAGICPGMVQTDMSKGKGQLTIEESSSQILAAFNKLGATHNGGYFRRDLSIIPY”, the “soluble on expression in E. coli” value was “not soluble”. With “MTLVSQIEAILFVVGEEGIGLEELAYLLEKSTAKTYEELTKLKEHYASDNKSALNILEVGNHFVLTTKKKYASLLKKYAQSPMSNALSQAALETLSIIAYKQPISRIEIDEIRGVQTSGSIQKLVARQLIEEKGRVDGPGRAILYGTTKYFMDYFGLKSLDELPDIQQMEDELEEELPMDLFFDRYQETNPMSETTEGEEA” the “soluble on expression in E. coli” value was “not soluble”. In the case of “MLEQIQQALAGDQEQFQALYGQYQPVIYKCMKKYYLKDYDTEDWLQEGRIVFFRTLERFDSEKQASLGKFFKRNFENHVHSLIRHQCAYKRRTDTLSISLEQRLESAGEELVDYLGTAATDPLGQLMIQEKLAAFPTRLSSLEQQILNAYLKGYTLEEIAKVRGGTFSAVRSAYDRAKAKMKYTLENE”, the “soluble on expression in E. coli” value was “not soluble”.
